Experimental data: publication PMC4452343, “Monitoring β-arrestin recruitment via β-lactamase enzyme fragment complementation: purification of peptide E as a low-affinity ligand for mammalian bombesin receptors” (PLoS ONE, 2015)

Legend:
[1] = biological target: human bombesin receptor subtype 3 (human) (UniProt P32247)
[2] = biological target: neuromedin B receptor (human) (UniProt P28336)
Sequence of neuromedin B receptor (human) (P28336 whole entry): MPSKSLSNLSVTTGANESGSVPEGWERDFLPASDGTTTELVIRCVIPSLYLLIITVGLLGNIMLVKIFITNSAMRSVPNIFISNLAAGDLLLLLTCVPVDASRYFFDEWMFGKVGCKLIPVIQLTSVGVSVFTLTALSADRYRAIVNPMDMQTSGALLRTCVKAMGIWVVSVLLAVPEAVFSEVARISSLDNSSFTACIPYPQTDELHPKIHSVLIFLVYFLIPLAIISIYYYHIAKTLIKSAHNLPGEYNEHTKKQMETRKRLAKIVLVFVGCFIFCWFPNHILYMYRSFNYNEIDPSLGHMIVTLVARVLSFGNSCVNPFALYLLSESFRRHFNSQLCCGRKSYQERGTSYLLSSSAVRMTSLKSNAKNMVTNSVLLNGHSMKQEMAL

Sequence of human bombesin receptor subtype 3 (human) (P32247 whole entry): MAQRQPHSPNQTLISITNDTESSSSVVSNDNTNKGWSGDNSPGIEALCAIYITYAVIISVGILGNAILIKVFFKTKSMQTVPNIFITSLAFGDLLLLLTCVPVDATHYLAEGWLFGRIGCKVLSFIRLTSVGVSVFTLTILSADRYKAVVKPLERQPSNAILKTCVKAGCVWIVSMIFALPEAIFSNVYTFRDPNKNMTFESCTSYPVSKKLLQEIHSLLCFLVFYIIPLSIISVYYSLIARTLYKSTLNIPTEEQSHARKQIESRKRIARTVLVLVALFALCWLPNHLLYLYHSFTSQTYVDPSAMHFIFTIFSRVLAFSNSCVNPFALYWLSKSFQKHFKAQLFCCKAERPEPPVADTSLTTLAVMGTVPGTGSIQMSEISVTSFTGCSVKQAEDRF

| EC50 of NFAT-luciferase reporter activation in CHO cells expressing hBRS3 [1] | EC50 of NFAT-luciferase reporter activation in CHO cells expressing hNMBR [2] | Substance |
| --- | --- | --- |
| 8.8 nM |  | [D-Phe^6, ß-Ala^11, Phe^13, Nle^14]-Bombesin (6–14) (peptide) |
|  | 0.16 nM | neuromedin B (peptide) |
